{"source": "patent US6576753B1", "about": "“DNA encoding human leukotriene C4 synthase” (The Brigham and Women's Hospital, Inc., priority 1994, dated 2003)", "molecules": {"B1": {"name": "Q25K: LTC4 synthase point mutant (protein, UniProt Q16873 1-150, looked up, variant Q25K)", "Leukotriene C4 synthase": "MKDEVALLAAVTLLGVLLQAYFSLKVISARRAFRVSPPLTTGPPEFERVYRAQVNCSEYFPLFLATLWVAGIFFHEGAAALCGLVYLFARLRYFQGYARSAQLRLAPLYASARALWLLVALAALGLLAHFLPAALRAALLGRLRTLLPWA"}, "B2": {"name": "R51I/WT: recombinant pseudo-heterodimer of R51I LTC4 synthase monomer and wild-type monomer (protein, UniProt Q16873 1-150, looked up, variant R51I)", "Leukotriene C4 synthase": "MKDEVALLAAVTLLGVLLQAYFSLQVISARRAFRVSPPLTTGPPEFERVYIAQVNCSEYFPLFLATLWVAGIFFHEGAAALCGLVYLFARLRYFQGYARSAQLRLAPLYASARALWLLVALAALGLLAHFLPAALRAALLGRLRTLLPWA", "modifications": "heterodimer with wild-type monomer"}, "B3": {"name": "deletion of the charged amino acids K2 and D3 at the amino terminus: LTC4 synthase deletion mutant (protein, UniProt Q16873 1-150, looked up, variant K2* D3*)", "Leukotriene C4 synthase": "MEVALLAAVTLLGVLLQAYFSLQVISARRAFRVSPPLTTGPPEFERVYRAQVNCSEYFPLFLATLWVAGIFFHEGAAALCGLVYLFARLRYFQGYARSAQLRLAPLYASARALWLLVALAALGLLAHFLPAALRAALLGRLRTLLPWA"}}, "system": "LTC4 synthase", "assay": "Conjugation of LTA4-ME with GSH by solubilized microsomes of COS cells transfected with wild-type or mutant LTC4 synthase", "details": "for conjugation function of transfected COS cell microsomes: compared to wild-type construct; for Function / effect on Km of GSH / Km: COS cell microsome", "note": "Entries after “also recorded” stand apart in the source; their conditions may differ. Read-outs that look alike come from different tables or passages of the source.", "experimental": "OF THE EXPRESSED PROTEINS: COS-7 cells were transfected with either wild-type LTC4 synthase cDNA or the mutated LTC4 synthase cDNA by DEAE-dextran transfection (Lam et al., Proc. Natl. Acad. Sci. USA., 91:7663, 1994). Three days after transfection, the cells were harvested by treatment with trypsin and suspended in microsomal buffer (50 mM HEPES buffer pH 7.9 containing 2 mM EDTA and 10 mM β-mercaptoethanol) at a concentration of 5×10^6 cells/ml. The cells were lysed by sonication with a Branson microtip sonicator (Danbury, Conn.) at a setting of 7. Cell lysates were centrifuged at 100,000×g for 60 min at 4° C., and the pellets (microsomes) were resuspended in microsomal buffer and were solubilized by the addition of 0.4% Triton X-102, 0.4% sodium deoxycholate (DOC), and 10% glycerol and stirring at 4° C. for 45 min.\nThe function of each mutant enzyme as well as the wild-type enzyme was first screened by the incubation of 1-10 μl of solubilized COS cell microsomes with 10 mM GSH and 20 μM LTA4-ME in 200 μl 50 mM HEPES buffer containing 10 mM MgCl2, pH 7.6. The reactions were carried out at room temperature for 10 min and stopped by the addition of 3 vol methanol containing 200 ng prostaglandin B2 (PGB2) as an internal standard. LTC4-ME levels in the samples were determined with high performance liquid chromatography (HPLC).\nReverse phase (RP)-HPLC was carried out with a model 126 dual pump system and model 167 scanning UV detector (Beckman Instruments) controlled by an Gateway 2000 P4D66 computer equipped with Beckman System Gold software. Samples were applied to a 5-μm 4.6×250-mm C18 Ultrasphere reverse phase column (Beckman Instruments) equilibrated with a solvent of methanol/acetonitrile/water/acetic acid (10:15:100:0.2, v/v), pH 6.0 (solvent A). Immediately after the sample was injected, the column was eluted at a flow rate of 1 ml/min with a programmed concave gradient (System Cold curve 6) to 20% solvent A and 80% solvent B (pure methanol) over 0.2 min with continuation isocratically for 5.8 min. Beginning at 6 min, solvent B was increased linearly to 100% over 0.2 min and was maintained at this level for 7 min more. The ultraviolet absorbance at 280 nm and the ultraviolet spectra were recorded simultaneously. The retention times for PGB2 and LTC4-ME were 7.4 and 8.9 min, respectively. LTC4-ME was quantitated by calculating the ratio of the peak area to the area of the internal standard PGB2."}
{"molecule": "L39F: LTC4 synthase point mutant", "values": [{"measurement": "conjugation function of transfected COS cell microsomes", "result": "did not affect the function"}]}
{"molecule": "S100V: LTC4 synthase point mutant", "values": [{"measurement": "conjugation function of transfected COS cell microsomes", "result": "did not affect the function"}]}
{"molecule": "N55A: LTC4 synthase point mutant of the consensus N-glycosylation site", "values": [{"measurement": "Function", "result": "85 % of WT"}, {"measurement": "effect on Km of GSH", "result": "increase the Km of GSH"}, {"measurement": "Km", "setting": "read-out: Km GSH", "result": 10700, "unit": "µM"}, {"measurement": "Km", "setting": "read-out: Km LTA4-ME", "result": 7.7, "unit": "µM"}]}
{"molecule": "F60Y: LTC4 synthase point mutant", "values": [{"measurement": "conjugation function of transfected COS cell microsomes", "result": "did not affect the function"}]}
{"molecule": "V69S: LTC4 synthase point mutant", "values": [{"measurement": "conjugation function of transfected COS cell microsomes", "result": "did not affect the function"}]}
{"molecule": "C56S: LTC4 synthase point mutant", "values": [{"measurement": "conjugation function of transfected COS cell microsomes", "result": "do not affect conjugation function"}, {"measurement": "conjugation function of transfected COS cell microsomes", "setting": "listed as C56 to S56", "result": "None of the mutations affected conjugation function"}]}
{"molecule": "Y59F: LTC4 synthase point mutant", "values": [{"measurement": "Function", "result": "100 % of WT"}, {"measurement": "Km", "setting": "read-out: Km GSH", "result": 15500, "unit": "µM"}, {"measurement": "Km", "setting": "read-out: Km LTA4-ME", "result": 19, "unit": "µM"}]}
{"molecule": "E58Q: LTC4 synthase point mutant", "values": [{"measurement": "conjugation function of transfected COS cell microsomes", "result": "did not attenuate the conjugation function"}]}
{"molecule": "Y109I: LTC4 synthase point mutant", "values": [{"measurement": "Function", "result": "100 % of WT"}, {"measurement": "conjugation function of transfected COS cell microsomes", "result": "did not affect the function"}, {"measurement": "Km", "setting": "read-out: Km GSH", "result": 1600, "unit": "µM"}, {"measurement": "Km", "setting": "read-out: Km LTA4-ME", "result": 20, "unit": "µM"}]}
{"molecule": "A52S: LTC4 synthase point mutant", "values": [{"measurement": "Function", "result": "80 % of WT"}, {"measurement": "effect on Km of GSH", "result": "did exhibit an increase in Km for GSH"}, {"measurement": "Km", "setting": "read-out: Km GSH", "result": 30000, "unit": "µM"}, {"measurement": "Km", "setting": "read-out: Km LTA4-ME", "result": 4.5, "unit": "µM"}]}
{"molecule": "F46Y: LTC4 synthase point mutant", "values": [{"measurement": "conjugation function of transfected COS cell microsomes", "result": "did not affect the function"}]}
{"molecule": "R99S: LTC4 synthase point mutant", "values": [{"measurement": "conjugation function of transfected COS cell microsomes", "result": "did not affect the function"}]}
{"molecule": "E47Q: LTC4 synthase point mutant", "values": [{"measurement": "conjugation function of transfected COS cell microsomes", "result": "did not attenuate the conjugation function; also recorded: did not affect the function"}]}
{"molecule": "E76Q: LTC4 synthase point mutant", "values": [{"measurement": "conjugation function of transfected COS cell microsomes", "result": "did not affect the function"}]}
{"molecule": "Y97F: LTC4 synthase point mutant", "values": [{"measurement": "Function", "result": "100 % of WT"}, {"measurement": "Km", "setting": "read-out: Km GSH", "result": 16500, "unit": "µM"}, {"measurement": "Km", "setting": "read-out: Km LTA4-ME", "result": 16.5, "unit": "µM"}]}
{"molecule": "R51K: LTC4 synthase point mutant", "values": [{"measurement": "Function", "result": "100 % of WT"}, {"measurement": "conjugation function of transfected COS cell microsomes", "result": "activity was not diminished"}, {"measurement": "Km", "setting": "read-out: Km GSH", "result": 2300, "unit": "µM"}, {"measurement": "Km", "setting": "read-out: Km LTA4-ME", "result": 9.4, "unit": "µM"}]}
{"molecule": "R48S: LTC4 synthase point mutant", "values": [{"measurement": "conjugation function of transfected COS cell microsomes", "result": "did not attenuate the conjugation function; also recorded: did not affect the function"}]}
{"molecule": "Y50F: LTC4 synthase point mutant", "values": [{"measurement": "conjugation function of transfected COS cell microsomes", "result": "did not affect the function"}]}
{"molecule": "E45Q: LTC4 synthase point mutant", "values": [{"measurement": "conjugation function of transfected COS cell microsomes", "result": "did not attenuate the conjugation function; also recorded: did not affect the function"}]}
{"molecule": "R51I: LTC4 synthase point mutant", "values": [{"measurement": "conjugation function of transfected COS cell microsomes", "result": "do not show conjugation activity"}, {"measurement": "conjugation function of transfected COS cell microsomes", "setting": "listed as Arg 51 to isoleucine", "result": "abolished the functional activity"}]}
{"molecule": "V49F: LTC4 synthase point mutant", "values": [{"measurement": "Function", "result": "100 % of WT"}, {"measurement": "Km", "setting": "read-out: Km GSH", "result": 9200, "unit": "µM"}, {"measurement": "Km", "setting": "read-out: Km LTA4-ME", "result": 10, "unit": "µM"}]}
{"molecule": "T66V: LTC4 synthase point mutant", "values": [{"measurement": "conjugation function of transfected COS cell microsomes", "result": "did not affect the function"}]}
{"molecule": "H75Q: LTC4 synthase point mutant", "values": [{"measurement": "conjugation function of transfected COS cell microsomes", "result": "did not affect the function"}]}
{"molecule": "L62T: LTC4 synthase point mutant", "values": [{"measurement": "Function", "result": "100 % of WT"}, {"measurement": "conjugation function of transfected COS cell microsomes", "result": "did not affect the function"}, {"measurement": "Km", "setting": "read-out: Km GSH", "result": 2500, "unit": "µM"}, {"measurement": "Km", "setting": "read-out: Km LTA4-ME", "result": 6.7, "unit": "µM"}]}
{"molecule": "R92S: LTC4 synthase point mutant", "values": [{"measurement": "conjugation function of transfected COS cell microsomes", "result": "did not affect the function"}]}
{"molecule": "Q53N: LTC4 synthase point mutant", "values": [{"measurement": "conjugation function of transfected COS cell microsomes", "result": "did not affect the function"}]}
{"molecule": "R104S: LTC4 synthase point mutant", "values": [{"measurement": "conjugation function of transfected COS cell microsomes", "result": "did not affect the function"}]}
{"molecule": "S111V: LTC4 synthase point mutant", "values": [{"measurement": "conjugation function of transfected COS cell microsomes", "result": "did not affect the function"}]}
{"molecule": "V69T: LTC4 synthase point mutant", "values": [{"measurement": "Function", "result": "100 % of WT"}, {"measurement": "Km", "setting": "read-out: Km GSH", "result": 2000, "unit": "µM"}, {"measurement": "Km", "setting": "read-out: Km LTA4-ME", "result": 19, "unit": "µM"}]}
{"molecule": "V54Q: LTC4 synthase point mutant", "values": [{"measurement": "conjugation function of transfected COS cell microsomes", "result": "did not affect the function"}]}
{"molecule": "B1", "values": [{"measurement": "conjugation function of transfected COS cell microsomes", "result": "did not affect the function"}]}
{"molecule": "B2", "values": [{"measurement": "Function", "result": "90 % of WT"}, {"measurement": "conjugation function of transfected COS cell microsomes", "result": "retained enzymatic function"}, {"measurement": "Km", "setting": "read-out: Km GSH", "result": 3200, "unit": "µM"}, {"measurement": "Km", "setting": "read-out: Km LTA4-ME", "result": 6.5, "unit": "µM"}]}
{"molecule": "B3", "values": [{"measurement": "conjugation function of transfected COS cell microsomes", "result": "Neither the deletion of the charged amino acids K2 and D3 at the amino terminus nor the deletion of the 14 amino acids at the carboxyl terminus altered the function"}]}
